Data on 2 substances can be found in PMC7959569.

The experiment concerns the target Med25 AcID, Med25(394-543)-His6 (UniProt Q71SY5). As to the kind of experiment: stopped-flow fluorescence transient kinetics.

Chain of Med25 AcID, Med25(394-543)-His6 (Q71SY5 394-543): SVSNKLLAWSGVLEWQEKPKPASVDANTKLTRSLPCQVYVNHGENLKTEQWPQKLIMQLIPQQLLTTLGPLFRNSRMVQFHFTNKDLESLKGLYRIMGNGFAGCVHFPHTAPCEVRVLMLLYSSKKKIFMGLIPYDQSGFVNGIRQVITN

In the case of “ETV1^∆Nt TAD with 4-DMN on the N terminus (from UniProt P50549 42-477) (peptide)”, the fold gain in affinity against the parent TAD was found to be 1.7 fold.

As for “ETV4^∆Nt TAD with 4-DMN on the N terminus (from UniProt P43268 49-484) (peptide)”, the fold gain in affinity against the parent TAD came to 1.7 fold.
